The target in assay [1] is T1, Fusarium oxysporum lipase (FoL), wild type (Fusarium oxysporum).
T1 chain: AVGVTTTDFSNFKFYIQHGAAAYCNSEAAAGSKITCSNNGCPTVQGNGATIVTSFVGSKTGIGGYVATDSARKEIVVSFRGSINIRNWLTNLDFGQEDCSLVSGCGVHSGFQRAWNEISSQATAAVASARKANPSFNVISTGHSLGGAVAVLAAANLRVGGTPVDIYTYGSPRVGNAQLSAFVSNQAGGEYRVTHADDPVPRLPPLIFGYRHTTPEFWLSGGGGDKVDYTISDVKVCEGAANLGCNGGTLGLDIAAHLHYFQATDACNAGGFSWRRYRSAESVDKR
Nature of the assay: cell-based or functional assay.

Assay [2] addresses T2, Fusarium oxysporum lipase (FoL) variant [change] (Fusarium oxysporum).
T2 chain: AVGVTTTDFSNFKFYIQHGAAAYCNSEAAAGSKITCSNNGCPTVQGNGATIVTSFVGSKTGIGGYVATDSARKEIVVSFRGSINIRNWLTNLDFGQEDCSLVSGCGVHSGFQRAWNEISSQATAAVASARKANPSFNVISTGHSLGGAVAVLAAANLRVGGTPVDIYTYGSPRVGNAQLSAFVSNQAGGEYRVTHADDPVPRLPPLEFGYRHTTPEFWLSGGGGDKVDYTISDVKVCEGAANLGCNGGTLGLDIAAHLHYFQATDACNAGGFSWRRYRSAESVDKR
Put plainly: cell-based or functional assay.

In the case of ATMTDAELEKKLNSYVQMDKEYVKNNQARS (modifications not checked) [Peptide P0 (wildtype FoL C-terminal peptide)], the figures for the IC50 (half maximal inhibitory concentration; p-NP butyrate hydrolysis) (peptide/lipase ratio) in assay [1] and in assay [2] were 913 and 287, respectively.

Source of the values: patent US20090275083A1.
